Measurements taken from paper PMC8229176.

Target: ACE2 on ACE2-transfected HEK293 cells (UniProt Q9BYF1)
Test: flow cytometry on cells

UniProt Q9BYF1, sequence (Q9BYF1 18-805): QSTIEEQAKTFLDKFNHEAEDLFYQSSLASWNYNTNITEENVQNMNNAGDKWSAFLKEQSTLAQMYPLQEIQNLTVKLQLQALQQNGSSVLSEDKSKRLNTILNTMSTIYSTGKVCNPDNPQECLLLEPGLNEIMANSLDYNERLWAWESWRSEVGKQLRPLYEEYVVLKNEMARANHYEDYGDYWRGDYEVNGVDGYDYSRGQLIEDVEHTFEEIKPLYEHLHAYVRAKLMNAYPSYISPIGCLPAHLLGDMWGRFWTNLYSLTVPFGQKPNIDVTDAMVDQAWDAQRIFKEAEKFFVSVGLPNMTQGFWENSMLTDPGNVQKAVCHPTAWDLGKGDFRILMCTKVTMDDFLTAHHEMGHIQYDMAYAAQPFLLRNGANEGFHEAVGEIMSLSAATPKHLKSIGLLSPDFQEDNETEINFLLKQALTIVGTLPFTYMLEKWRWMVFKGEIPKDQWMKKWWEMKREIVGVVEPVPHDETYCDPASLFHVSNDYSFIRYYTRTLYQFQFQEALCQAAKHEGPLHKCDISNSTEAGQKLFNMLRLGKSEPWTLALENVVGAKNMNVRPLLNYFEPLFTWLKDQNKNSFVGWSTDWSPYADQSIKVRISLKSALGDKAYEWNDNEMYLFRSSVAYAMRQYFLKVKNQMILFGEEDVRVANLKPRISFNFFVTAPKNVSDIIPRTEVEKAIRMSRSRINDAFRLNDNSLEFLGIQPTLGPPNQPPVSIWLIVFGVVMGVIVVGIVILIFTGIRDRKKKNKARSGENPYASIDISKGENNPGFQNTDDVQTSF

Substance: SARS-CoV-2 spike protein receptor-binding domain (RBD), His6-tagged (domain or fragment)
- EC50: 49.1 nM
